No end group written: not given here.
What follows are binders tested against T1, Anti-CD28 Fab (SEQ ID NOs: 202, 203) (assay: phage binding ELISA, Fab on plate, CD28 as competitor).
T1 construct: biotinylated and captured on neutravidin coated plates in the phage ELISA
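Throughout, for Anti-CD28 Fab signal in the presence of CD28: coated wells pre-incubated with CD28 antigen or with blocking buffer only, then crude clonal phage supernatant added briefly, and retained phage read out via HRP-linked anti-M13 antibody.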

Question: With SCAAGLSYPWPDCL [Phage-1055] as the binder, how does the “Anti-CD28 Fab signal in the presence of CD28” value read?
Answer: 0.07

Question: For TCAAGAGWAWPFCF [Phage-1056], which “Anti-CD28 Fab signal in the presence of CD28” value is on record?
Answer: 0.09

Each binder was assayed against anti-CD28 Fab (SEQ ID NOs: 202, 203) (assay: phage binding ELISA; biotinylated anti-CD28 Fab captured on neutravidin plate, clonal phage supernatant, anti-M13-HRP detection;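 note: before crude clonal phage supernatants were added, wells were preincubated with CD28 antigen in blocking buffer or with blocking buffer only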).

Question: How did the “Anti-CD28 Fab (SEQ ID NOs: 202, 203) signal” value turn out when LCAAVFAYTWPMCF [Phage-1220] was run?
Answer: 0.98

Question: PCAAGAHYVWPVCF [Phage-1221] was tested. Which “Anti-CD28 Fab (SEQ ID NOs: 202, 203) signal” value did it give?
Answer: 0.97

Question: TCSAGATYKWPTCL [Phage-1222] was tested. Which “Anti-CD28 Fab (SEQ ID NOs: 202, 203) signal” value did it give?
Answer: 0.97

Question: For SCAAGAHWSWPACL [Phage-1223], which “Anti-CD28 Fab (SEQ ID NOs: 202, 203) signal” value is on record?
Answer: 0.97

Question: MCAAGAMYNWPLCL [Phage-1224] was tested. Which “Anti-CD28 Fab (SEQ ID NOs: 202, 203) signal” value did it give?
Answer: 0.95

Question: For SCAAGASYSWPLCF [Phage-1225], which “Anti-CD28 Fab (SEQ ID NOs: 202, 203) signal” value is on record?
Answer: 0.95

Question: With VCAAGAAYPWPACL [Phage-1226] as the binder, how does the “Anti-CD28 Fab (SEQ ID NOs: 202, 203) signal” value read?
Answer: 0.93

Question: With TCSAGAHYPWPMCL [Phage-1227] as the binder, how does the “Anti-CD28 Fab (SEQ ID NOs: 202, 203) signal” value read?
Answer: 0.93

Question: Which “Anti-CD28 Fab (SEQ ID NOs: 202, 203) signal” value does the source give for TCAAGATWVWPTCF [Phage-1228] here?
Answer: 0.92

Question: How did the “Anti-CD28 Fab (SEQ ID NOs: 202, 203) signal” value turn out when TCSAGAMYNWPECF [Phage-1229] was run?
Answer: 0.92

Question: How did the “Anti-CD28 Fab (SEQ ID NOs: 202, 203) signal” value turn out when TCSAGAMYSWPLCI [Phage-1230] was run?
Answer: 0.91

Question: For QCAAGFSYTWPECY [Phage-1231], which “Anti-CD28 Fab (SEQ ID NOs: 202, 203) signal” value is on record?
Answer: 0.9

Question: WCAAFFHYPWPQCF [Phage-1232] was tested. Which “Anti-CD28 Fab (SEQ ID NOs: 202, 203) signal” value did it give?
Answer: 0.87

Question: RCKAGVPYKWPMCL [Phage-1233] was tested. Which “Anti-CD28 Fab (SEQ ID NOs: 202, 203) signal” value did it give?
Answer: 0.87

Question: TCAAGATYEWPSCI [Phage-1234] was tested. Which “Anti-CD28 Fab (SEQ ID NOs: 202, 203) signal” value did it give?
Answer: 0.86

Question: For TCAAGAKYVWPLCF [Phage-1235], which “Anti-CD28 Fab (SEQ ID NOs: 202, 203) signal” value is on record?
Answer: 0.85

Question: Which “Anti-CD28 Fab (SEQ ID NOs: 202, 203) signal” value does the source give for LCEAGFNYDWPRCL [Phage-1236] here?
Answer: 0.85

Question: Which “Anti-CD28 Fab (SEQ ID NOs: 202, 203) signal” value does the source give for TCAAGASWDWPFCF [Phage-1237] here?
Answer: 0.82

Question: ECGWEPGQHWRVCF [Phage-1238] was tested. Which “Anti-CD28 Fab (SEQ ID NOs: 202, 203) signal” value did it give?
Answer: 0.82

Question: How did the “Anti-CD28 Fab (SEQ ID NOs: 202, 203) signal” value turn out when SCAAGATYEWPTCL [Phage-1239] was run?
Answer: 0.81

Question: Which “Anti-CD28 Fab (SEQ ID NOs: 202, 203) signal” value does the source give for SCAAGATYKWPACF [Phage-1240] here?
Answer: 0.8

Question: How did the “Anti-CD28 Fab (SEQ ID NOs: 202, 203) signal” value turn out when SCSAGAMWLWPECF [Phage-1241] was run?
Answer: 0.8

Question: How did the “Anti-CD28 Fab (SEQ ID NOs: 202, 203) signal” value turn out when WCSAVFSYQWPPCF [Phage-1242] was run?
Answer: 0.78

The binders below were run against T2, Ab-1 (assay: BLI (Octet), 200 nM peptide, 100 nM Ab-1;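 note: association and dissociation phases tracked in real time, with kinetics fitted to a 1:1 interaction model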).
T2 construct: also called anti-CD28 scFv harbored in Ab-1

Question: For ADWCPRDLWVHCFA (cysteine pairing not given here; also: biotinylated, site not given here) [Peptide-2], which Octet signal is on record?
Answer: 0.7

Question: What about the t1/2 of the same binder?
Answer: 3.1 min

Question: What does the source list for NDWCPRDLWVHCFA (cysteine pairing not given here; also: biotinylated, site not given here) [Peptide-4]?
Answer: Octet signal: 0.434; t1/2: 4 min

Question: Which results are given for DDWCPRDLWVHCFA (cysteine pairing not given here; also: biotinylated, site not given here) [Peptide-5]?
Answer: Octet signal: 0.461; t1/2: 4.2 min

Question: Which results are given for GDWCPRDLWVHCFA (cysteine pairing not given here; also: biotinylated, site not given here) [Peptide-8]?
Answer: Octet signal: 0.479; t1/2: 3.9 min

Question: Which results are given for HDWCPRDLWVHCFA (cysteine pairing not given here; also: biotinylated, site not given here) [Peptide-9]?
Answer: Octet signal: 0.737; t1/2: 3 min

Question: With IDWCPRDLWVHCFA (cysteine pairing not given here; also: biotinylated, site not given here) [Peptide-10] as the binder, how does the Octet signal read?
Answer: 0.845

Question: What about the t1/2 of the same binder?
Answer: 3.1 min

Question: What does the source list for LDWCPRDLWVHCFA (cysteine pairing not given here; also: biotinylated, site not given here) [Peptide-11]?
Answer: Octet signal: 1.37; t1/2: 4.5 min

Question: For FDWCPRDLWVHCFA (cysteine pairing not given here; also: biotinylated, site not given here) [Peptide-13], which Octet signal is on record?
Answer: 1.01

Question: What about the t1/2 of the same binder?
Answer: 3.3 min

Question: Which results are given for PDWCPRDLWVHCFA (cysteine pairing not given here; also: biotinylated, site not given here) [Peptide-14]?
Answer: Octet signal: 0.328; t1/2: 3.4 min

Question: How did the Octet signal turn out when SDWCPRDLWVHCFA (cysteine pairing not given here; also: biotinylated, site not given here) [Peptide-15] was run?
Answer: 0.551

Question: And the t1/2?
Answer: 2.9 min

Question: With WDWCPRDLWVHCFA (cysteine pairing not given here; also: biotinylated, site not given here) [Peptide-17] as the binder, how does the Octet signal read?
Answer: 1.15

Question: And the t1/2?
Answer: 4.1 min

Question: For YDWCPRDLWVHCFA (cysteine pairing not given here; also: biotinylated, site not given here) [Peptide-18], which Octet signal is on record?
Answer: 0.849

Question: What about the t1/2 of the same binder?
Answer: 2.9 min

Question: For VDWCPRDLWVHCFA (cysteine pairing not given here; also: biotinylated, site not given here) [Peptide-19], which Octet signal is on record?
Answer: 0.919

Question: And the t1/2?
Answer: 2.9 min

The binders below were run against T1, Anti-CD28 Fab (SEQ ID NOs: 202, 203) (assay: phage binding ELISA, Fab on plate;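 note: clonal phage supernatant ELISA, wells preincubated with CD28 antigen or blocking buffer only, then bound phage detected using HRP-linked anti-M13 antibody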).

Question: SCAAGLSYPWPDCL [Phage-1055] was tested. Which “Anti-CD28 Fab (SEQ ID NOs: 202, 203) signal” value did it give?
Answer: 1.65

Question: TCAAGAGWAWPFCF [Phage-1056] was tested. Which “Anti-CD28 Fab (SEQ ID NOs: 202, 203) signal” value did it give?
Answer: 1.65

Each binder was assayed against T2, Ab-1 (assay: competition ELISA, peptide titrated vs 1 nM Ab-1 binding plate-bound CD28).

Question: For ADWCPRDLWVHCFA (cysteine pairing not given here; also: biotinylated, site not given here) [Peptide-2], which IC50 is on record?
Answer: 2000 nM

Question: For NDWCPRDLWVHCFA (cysteine pairing not given here; also: biotinylated, site not given here) [Peptide-4], which IC50 is on record?
Answer: 5030 nM

Question: For DDWCPRDLWVHCFA (cysteine pairing not given here; also: biotinylated, site not given here) [Peptide-5], which IC50 is on record?
Answer: 4460 nM

Question: GDWCPRDLWVHCFA (cysteine pairing not given here; also: biotinylated, site not given here) [Peptide-8] was tested. Which IC50 did it give?
Answer: 7060 nM

Question: With HDWCPRDLWVHCFA (cysteine pairing not given here; also: biotinylated, site not given here) [Peptide-9] as the binder, how does the IC50 read?
Answer: 2180 nM

Question: For IDWCPRDLWVHCFA (cysteine pairing not given here; also: biotinylated, site not given here) [Peptide-10], which IC50 is on record?
Answer: 2660 nM

Question: LDWCPRDLWVHCFA (cysteine pairing not given here; also: biotinylated, site not given here) [Peptide-11] was tested. Which IC50 did it give?
Answer: 630 nM

Question: With FDWCPRDLWVHCFA (cysteine pairing not given here; also: biotinylated, site not given here) [Peptide-13] as the binder, how does the IC50 read?
Answer: 780 nM

Question: With PDWCPRDLWVHCFA (cysteine pairing not given here; also: biotinylated, site not given here) [Peptide-14] as the binder, how does the IC50 read?
Answer: 8340 nM

Question: How did the IC50 turn out when SDWCPRDLWVHCFA (cysteine pairing not given here; also: biotinylated, site not given here) [Peptide-15] was run?
Answer: 2630 nM

Question: Which IC50 does the source give for WDWCPRDLWVHCFA (cysteine pairing not given here; also: biotinylated, site not given here) [Peptide-17] here?
Answer: 2800 nM

Question: With YDWCPRDLWVHCFA (cysteine pairing not given here; also: biotinylated, site not given here) [Peptide-18] as the binder, how does the IC50 read?
Answer: 3250 nM

Question: VDWCPRDLWVHCFA (cysteine pairing not given here; also: biotinylated, site not given here) [Peptide-19] was tested. Which IC50 did it give?
Answer: 4420 nM

The binders below were run against T3, anti-CD28 Fab (SEQ ID NOs: 202, 203) (assay: binding ELISA, peptide captured, anti-CD28 Fab titrated).
T3 construct: biotinylated when captured in the phage ELISAs

Question: How did the EC50 turn out when TCSAGATWPWPICL (cysteine pairing not given here; also: biotinylated, site not given here) [Peptide-89] was run?
Answer: 2.1 nM

Question: LCAAGASWPWPVCL (cysteine pairing not given here; also: biotinylated, site not given here) [Peptide-90] was tested. Which EC50 did it give?
Answer: 13.1 nM

Question: How did the EC50 turn out when TCSAGASYPWPLCL (cysteine pairing not given here; also: biotinylated, site not given here) [Peptide-91] was run?
Answer: 5.3 nM

Question: With TCSAGAAYPWPLCL (cysteine pairing not given here; also: biotinylated, site not given here) [Peptide-97] as the binder, how does the EC50 read?
Answer: 4.4 nM

Question: Which EC50 does the source give for TCAAGAAWPWPQCL (cysteine pairing not given here; also: biotinylated, site not given here) [Peptide-92] here?
Answer: 2.6 nM

Question: TCSAGATYTWPKCF (cysteine pairing not given here; also: biotinylated, site not given here) [Peptide-93] was tested. Which EC50 did it give?
Answer: 15.7 nM

What follows are binders tested against T2, Ab-1 (assay: binding ELISA, peptide captured, Ab-1 titrated).

Question: ADWCPRDLWVHCFA (cysteine pairing not given here; also: biotinylated, site not given here) [Peptide-2] was tested. Which EC50 did it give?
Answer: 75.9 nM

Question: How did the EC50 turn out when NDWCPRDLWVHCFA (cysteine pairing not given here; also: biotinylated, site not given here) [Peptide-4] was run?
Answer: 84.3 nM

Question: With DDWCPRDLWVHCFA (cysteine pairing not given here; also: biotinylated, site not given here) [Peptide-5] as the binder, how does the EC50 read?
Answer: 86.8 nM

Question: How did the EC50 turn out when GDWCPRDLWVHCFA (cysteine pairing not given here; also: biotinylated, site not given here) [Peptide-8] was run?
Answer: 73.9 nM

Question: How did the EC50 turn out when HDWCPRDLWVHCFA (cysteine pairing not given here; also: biotinylated, site not given here) [Peptide-9] was run?
Answer: 45.4 nM

Question: IDWCPRDLWVHCFA (cysteine pairing not given here; also: biotinylated, site not given here) [Peptide-10] was tested. Which EC50 did it give?
Answer: 44.9 nM

Question: Which EC50 does the source give for LDWCPRDLWVHCFA (cysteine pairing not given here; also: biotinylated, site not given here) [Peptide-11] here?
Answer: 23.4 nM

Question: With FDWCPRDLWVHCFA (cysteine pairing not given here; also: biotinylated, site not given here) [Peptide-13] as the binder, how does the EC50 read?
Answer: 39.3 nM

Question: With PDWCPRDLWVHCFA (cysteine pairing not given here; also: biotinylated, site not given here) [Peptide-14] as the binder, how does the EC50 read?
Answer: 102 nM

Question: Which EC50 does the source give for SDWCPRDLWVHCFA (cysteine pairing not given here; also: biotinylated, site not given here) [Peptide-15] here?
Answer: 66.5 nM

Question: With WDWCPRDLWVHCFA (cysteine pairing not given here; also: biotinylated, site not given here) [Peptide-17] as the binder, how does the EC50 read?
Answer: 21.7 nM

Question: For YDWCPRDLWVHCFA (cysteine pairing not given here; also: biotinylated, site not given here) [Peptide-18], which EC50 is on record?
Answer: 32.2 nM

Question: VDWCPRDLWVHCFA (cysteine pairing not given here; also: biotinylated, site not given here) [Peptide-19] was tested. Which EC50 did it give?
Answer: 32.5 nM

Reference: patent US20260274955A1 (JANUX THERAPEUTICS, published 2026)
